# Experimental data published in paper PMC12207370, “Macrocyclic Peptide Probes for Immunomodulatory Protein CD59: Potent Modulators of Bacterial Toxin Activity and Antibody‐Dependent Cytotoxicity” (Angewandte Chemie (International Ed. in English), 2025).
# Target: T1, biotinylated CD59 (Homo sapiens, UniProt P13987)
# T1 construct: Recombinant soluble human CD59 with an additional C-terminal cysteine residue
# T1 sequence (P13987 26-102 limits assumed): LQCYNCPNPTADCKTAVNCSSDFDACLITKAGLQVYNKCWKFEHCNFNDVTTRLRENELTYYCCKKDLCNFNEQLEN
# Assay: mRNA-display cyclic peptide screen against CD59-biotin, NGS abundance after 6th selection round
# Settings: for Percentage Seq I: counts normalised by total counts of sample Seq I; for Percentage Seq I / Percentage Seq II: percentage of the pool; for Percentage Seq I / Percentage Seq II / Percentage Average / Percentage of the pool, averaged across the two sequencing samples / Percentage of the pool, Seq I / Percentage of the pool, Seq II: sheet R6; for Percentage Seq II: counts normalised by total counts of sample Seq II; for Percentage Average: percentage of the pool averaged across the two sequencing samples; for Counts Seq I / Counts Seq II: raw NGS counts of peptide sequence; for Counts Seq I: sequencing sample Seq I; for Counts Seq I / Counts Seq II / Counts (raw counts for peptide sequence), Seq I / Counts (raw counts for peptide sequence), Seq II: sheet R6 (6th selection round); for Counts Seq II: sequencing sample Seq II; for Counts (raw counts for peptide sequence), Seq I: NGS sample Seq I; for Counts (raw counts for peptide sequence), Seq II: NGS sample Seq II; for Percentage of the pool, averaged across the two sequencing samples: average of Seq I and Seq II; for Percentage of the pool, Seq I: counts normalised by total counts of NGS sample Seq I; for Percentage of the pool, Seq II: counts normalised by total counts of NGS sample Seq II
# Method in brief: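 Peptide–mRNA fusions were made by in vitro translation with a customised PURE express kit. The kit lacked release factor 1 and methionine and was supplemented with […] initiator tRNA carrying N-chloroacetyl-d-tyrosine. Thioether macrocycles were formed, then enriched and amplified over iterative rounds on CD59-biotin immobilised on streptavidin beads. NGS read counts per sequence were recorded after the 6th selection round.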
Sequence,Percentage Seq I,Percentage Seq II,Percentage Average,Counts Seq I,Counts Seq II,"Counts (raw counts for peptide sequence), Seq I","Counts (raw counts for peptide sequence), Seq II","Percentage of the pool, averaged across the two sequencing samples","Percentage of the pool, Seq I","Percentage of the pool, Seq II"
CYGGRTFIYAWT,0.043%,0.035%,0.039%,190,15,,,,,
LCYVKGSKNFT,0.088%,0.095%,0.092%,385,41,,,,,
YARGDASHTIW,0.043%,0.056%,0.049%,186,24,,,,,
HCWVRGSRNYA,0.029%,0.028%,0.029%,128,12,,,,,
CFQNRVSGSGAL,0.119%,0.116%,0.118%,522,50,,,,,
GYLNECHTLYTR,0.629%,0.645%,0.637%,2754,278,,,,,
HCRVRGSRNYT,,,,,,38,6,0.011%,0.009%,0.014%
CFVSRTQIGSV,,,,,,85,2,0.012%,0.019%,0.00464%
FITGNRDHTRG,0.018%,0.026%,0.022%,78,11,,,,,
CFAFRLSQTSV,0.179%,0.146%,0.162%,782,63,,,,,
CIRGTPTTVWG,0.387%,0.362%,0.374%,1692,156,,,,,
VAHGSKKSQFW,0.088%,0.104%,0.096%,386,45,,,,,
LYGNRDYSFYRP,0.162%,0.169%,0.166%,707,73,,,,,
CFRFRLNATSS,0.075%,0.060%,0.068%,329,26,,,,,
YSCPDWVRGSRT,,,,,,36,6,0.011%,0.008%,0.014%
YARGNNASQFF,0.089%,0.088%,0.089%,391,38,,,,,
YAWGNRNNAYY,0.060%,0.049%,0.054%,263,21,,,,,
CFSHRNPTDSI,,,,,,32,6,0.011%,0.007%,0.014%
SWTWGNRSSVSG,,,,,,73,2,0.011%,0.017%,0.00464%
SAWGNRQIQYC,0.039%,0.028%,0.033%,170,12,,,,,
TSYGSRVFAYF,0.031%,0.030%,0.031%,135,13,,,,,
CFAGRLTIDAV,2.645%,2.553%,2.599%,11574,1100,,,,,
HSYGSSQIAYH,,,,,,74,8,0.018%,0.017%,0.019%
IARGDRNHQFF,,,,,,42,6,0.012%,0.010%,0.014%
HCWARGSRNYT,0.041%,0.035%,0.038%,180,15,,,,,
CFTQRIASGSK,0.024%,0.021%,0.022%,105,9,,,,,
LWGTHSYVYYRP,,,,,,46,7,0.013%,0.011%,0.016%
